According to patent publication US20200376013:

Tested on: SDM-145

Chain of hMMP-9 (chain, as listed by the source): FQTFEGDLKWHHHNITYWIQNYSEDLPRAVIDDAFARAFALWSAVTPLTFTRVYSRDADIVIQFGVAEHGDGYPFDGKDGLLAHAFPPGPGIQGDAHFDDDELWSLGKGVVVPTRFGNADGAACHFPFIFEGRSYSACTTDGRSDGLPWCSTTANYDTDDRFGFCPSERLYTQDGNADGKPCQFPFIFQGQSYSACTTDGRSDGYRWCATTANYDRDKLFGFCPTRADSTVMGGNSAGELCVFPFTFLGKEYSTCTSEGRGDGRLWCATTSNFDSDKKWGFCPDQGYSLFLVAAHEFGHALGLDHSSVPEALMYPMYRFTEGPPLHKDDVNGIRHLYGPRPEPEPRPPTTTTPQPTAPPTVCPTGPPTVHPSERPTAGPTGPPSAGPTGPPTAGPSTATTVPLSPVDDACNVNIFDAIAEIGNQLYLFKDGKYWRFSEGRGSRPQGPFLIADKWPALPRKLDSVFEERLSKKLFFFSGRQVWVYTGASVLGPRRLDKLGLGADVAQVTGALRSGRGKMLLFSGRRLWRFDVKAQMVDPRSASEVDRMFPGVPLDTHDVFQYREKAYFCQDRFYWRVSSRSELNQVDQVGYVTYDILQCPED

Row | Substance | cleavage followed by LC-MS with fluorescence detection (ex 480 nm, em 560 nm), TCNB buffer pH 7.5, 37 C | cleavage followed by LC-MS with fluorescence detection (ex 480 nm, em 560 nm), sodium acetate buffer pH 5.0, 37 C
1 | hMMP-9 | The cleavage reaction was complete after 17 hour. | –
2 | Cathepsin B, human liver | – | The cleavage reaction was complete after 17 hour.
